Patent publication US20160168212A1 (RAMOT AT TEL AVIV UNIVERSITY, published 2016)

Molecular target: α-synuclein (recombinant, monomeric fraction) (UniProt P37840 1-140)
Assay: fluorescence anisotropy; α-syn monomers titrated into the Trp-containing peptide
Procedure: The solution was immediately mixed with α-syn monomer stock solution to varying final concentrations. The peptide polarization measurements were carried out using an ISS K2 fluorometer. The solutions were excited at 280 nm and emission was monitored at 350 nm. For each single point, at least five measurements were collected and their average values were used for the calculation. All experiments were performed using ultra pure water.

Kd: ~1000 nM
B1: β-syn 36 in which tyrosine was substituted with tryptophan (peptide)
peptide: GVLWVGSKTR
notes: also called β-syn 36 containing Tryptophan instead of Tyrosine
